According to article PMC2115487:

Biological target: TGF-beta receptor(s) on CCL64 mink lung epithelial cells (mink (endogenous in CCL64))
Assay: radioligand binding

- Kd: 8.3 pM
- increase of specific binding with 100 ug/ml heparin over no heparin: 46%
- specific binding, cpm of the 100% value (without heparin): 325 cpm
Substance: Human TGF-beta (type 1), 125I-labeled (ligand)
